Data on 1 substance can be found in article PMC10136936.

For this assay, the target named is Recombinant hemagglutinin from influenza A/California/04/2009 (H1N1), amino acids 1-519 (Influenza A/California/04/2009 (H1N1)) (UniProt C3W5S1). Nature of the assay: SEC.

A word on the stoichiometry N: it is a count of units in the complex or per binding partner.

As for “Recombinant hemagglutinin from influenza A/California/04/2009 (H1N1), amino acids 1-519 (from UniProt C3W5S1 1-519) (domain or fragment)”, the stoichiometry N was 3.
